Test results published in patent US20010010922.

Experiments:
[1] = tested on: GST-BCL6 fusion protein (full-length BCL-6)
[2] = tested on: GST-BCL6ΔZFAla333 fusion protein
[3] = tested on: GST-BCL6ΔZFAla333,343 fusion protein

Sequence of Recombinant ERK2 (New England Biolabs) (P28482 2-360): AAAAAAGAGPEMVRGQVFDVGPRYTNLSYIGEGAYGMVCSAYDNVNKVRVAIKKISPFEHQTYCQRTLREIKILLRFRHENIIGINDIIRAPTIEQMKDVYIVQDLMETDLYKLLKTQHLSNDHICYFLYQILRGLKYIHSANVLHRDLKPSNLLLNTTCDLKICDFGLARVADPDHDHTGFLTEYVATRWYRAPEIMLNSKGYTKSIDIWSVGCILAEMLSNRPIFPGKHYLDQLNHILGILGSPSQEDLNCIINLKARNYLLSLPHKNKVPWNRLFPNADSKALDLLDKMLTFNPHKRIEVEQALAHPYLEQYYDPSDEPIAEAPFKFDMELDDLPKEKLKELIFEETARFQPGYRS

Recombinant ERK2 (New England Biolabs)
phosphorylation in ERK2 kinase assay in vitro ([gamma-32P]-ATP) [1]: purified recombinant MAPK (ERK-2) can phosphorylate GST-BCL-6 fusion proteins in vitro | phosphorylation in ERK2 kinase assay in vitro ([gamma-32P]-ATP) [2]: phosphorylated at much lower levels than wild type BCL-6 | phosphorylation in ERK2 kinase assay in vitro ([gamma-32P]-ATP) [3]: phosphorylated at much lower levels than wild type BCL-6, with BCL-6Ala333,343 displaying the lowest levels
